Experiment [1] has as its target T1, recombinant human TfR extracellular region with N-terminal histidine tag (Sino Biological Inc.) (human, UniProt P02786 89-760).
T1 construct: also called r human TfR; r human TfR-ECD (Histag); not shown: Histidine tag at the N-terminus
The experiment can be described thus: BLI (Octet RED96), His-tagged TfR ECD loaded on Ni-NTA sensor, antibody in solution; human TfR. As to the method:
(§1) Purified anti-hTfR antibody No. 3 was diluted in two steps with HBS-P+ (10 mM HEPES containing 150 mM NaCl, 50 μM EDTA and 0.05% Surfactant P20), respectively, to prepare antibody solutions of 7 different concentrations, 0.78125 to 50 nM (0.117 to 7.5 μg/mL). These antibody solutions were used as sample solutions. The r human and r monkey TfRs were respectively diluted with HBS-P+ to prepare 25 pg/mL solutions, which were used as r human TfR-ECD (Histag) solution and r monkey TfR-ECD (Histag) solution, respectively.
(§2) Each of the sample solutions prepared above by 2-fold dilution steps was added, 200 μL/well, to a 96-well plate, black (Greiner Bio-One Inc.). Each of the r human TfR-ECD (Histag) solution and the r monkey TfR-ECD (Histag) solutions prepared above was added, 200 μL/well, to predetermined wells. To respective wells for baseline, dissociation and washing were added HBS-P+, 200 μL/well. To wells for regeneration were added 10 mM Glycine-HCl (pH 1.7), 200 μL/well. To wells for activation was added 0.5 mM NiCl₂ solution, 200 μL/well. The plate and biosensor (Biosensor/Ni-NTA: ForteBio Inc., a division of Pall Corporation) were set in the prescribed positions of Octet RED96.
(§3) The measurement was performed at 25 to 30° C.
In general terms: In BLI a coated tip is dipped into the sample, and binding shifts an interference pattern.

The target of experiment [2] is T2, recombinant monkey TfR extracellular region (Macaca fascicularis) with N-terminal histidine tag (Sino … (Macaca fascicularis (crab-eating …, UniProt Q5RDH6 89-760 (Pongo abelii entry)))).
T2 construct: also called r monkey TfR; r monkey TfR-ECD (Histag); not shown: Histidine tag at the N-terminus
T2 chain: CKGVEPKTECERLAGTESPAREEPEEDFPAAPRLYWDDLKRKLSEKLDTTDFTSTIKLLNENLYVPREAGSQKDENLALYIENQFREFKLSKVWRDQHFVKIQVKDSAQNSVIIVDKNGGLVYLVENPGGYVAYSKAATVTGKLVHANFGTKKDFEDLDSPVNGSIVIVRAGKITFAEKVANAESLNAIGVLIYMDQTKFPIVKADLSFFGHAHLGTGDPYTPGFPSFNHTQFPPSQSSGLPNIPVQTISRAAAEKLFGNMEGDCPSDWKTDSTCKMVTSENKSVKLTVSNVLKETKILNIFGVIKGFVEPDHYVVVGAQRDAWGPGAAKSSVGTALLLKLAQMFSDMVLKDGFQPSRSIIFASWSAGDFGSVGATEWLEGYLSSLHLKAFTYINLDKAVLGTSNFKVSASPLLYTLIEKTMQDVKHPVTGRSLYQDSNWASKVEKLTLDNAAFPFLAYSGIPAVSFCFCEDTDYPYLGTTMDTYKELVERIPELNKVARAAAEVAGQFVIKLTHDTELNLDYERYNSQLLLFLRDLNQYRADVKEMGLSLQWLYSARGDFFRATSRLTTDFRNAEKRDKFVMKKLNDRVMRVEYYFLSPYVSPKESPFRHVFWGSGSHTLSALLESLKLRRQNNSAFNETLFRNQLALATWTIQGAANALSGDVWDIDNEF
The experiment can be described thus: BLI (Octet RED96), His-tagged TfR ECD loaded on Ni-NTA sensor, antibody in solution; monkey TfR. As to the method: as §1, §2, §3

Experiment [3] has as its target T1, recombinant human TfR extracellular …. Description: BLI (Octet RED96) by the method of Example 7.
Experiment [4] has as its target T2, recombinant monkey TfR extracellular …. Description: BLI (Octet RED96) by the method of Example 7.

Experimental findings from patent US20210038739A1 (JCR PHARMACEUTICALS, published 2021) are described below.

B1: mouse anti-hTfR antibody No. 3 (antibody, V domains shown)
VH: EVQLQESGAELVRPGTSVKISCKASGYTFMNYWLGWVKQRPGHGLEWIGDIYPGGDYPTYSEKFKVKAILTADTSSSSVYLHLSSLTSEDSAVYFCARSGNYDEVAYWGQGTLVTVST
VL: DIVMTQTTLSLPVSLGDQASISCRSSQSLVHSNGNTYLHWYLQKPGQSPKLLIYKVSNRFSGVPDRFSGSGSGTDFTLKISRVEAEDLGVFFCSQSTHVPWTFGGGTKLEIKR
notes: Mouse hybridoma antibody; also called anti-hTfR No. 3; antibody of Clone 3 line
The term Kd denotes a measure of binding affinity in units of concentration. For B1, the dissociation constant (Kd) in experiment [1] and in experiment [2] was no more than 1 pM in each case.

B2: humanized anti-hTfR antibody No. 3 (antibody, human IgG4 S228P, kappa, V domains shown)
VH: EVQLVQSGAEVKKPGESLKISCKGSGYSFTNYWLGWVRQMPGKGLEWMGDIYPGGDYPTYSEKFKVQVTISADKSISTAYLQWSSLKASDTAMYYCARSGNYDEVAYWGQGTLVTVSS
VL: DIVMTQTPLSLSVTPGQPASISCRSSQSLVHSNGNTYLHWYLQKPGQSPQLLIYKVSNRFSGVPDRFSGSGSGTDFTLKISRVEAEDVGVYYCSQSTHVPWTFGQGTKVEIKR
notes: The heavy chain is of IgG4 type; also called humanized antibody of anti-hTfR antibody No. 3
Take B2: the figures for the Kd in experiment [3] and in experiment [4] were no more than 1 pM and roughly 1000 pM, respectively.
